Source: publication PMC8679000, “Biochemical Characterizations of Human TMPK Mutations Identified in Patients with Severe Microcephaly: Single Amino Acid Substitutions Impair Dimerization and Abolish Their Catalytic Activity” (ACS Omega, 2021)

Molecular target: the molecule itself
Assay: SEC; Superdex G200; 10 mM Tris/HCl pH 7.6, 100 mM NaCl, 5 mM MgCl2, 5 mM DTT; 200 ug protein injected, 0.4 mL/min; 0.4 mL fractions analysed by TMPK activity and Western blot; size markers BSA, ovalbumin, cytochrome C

B1: wild-type human deoxythymidylate kinase (TMPK) (enzyme, UniProt P23919 1-212, looked up)
chain: MAARRGALIVLEGVDRAGKSTQSRKLVEALCAAGHRAELLRFPERSTEIGKLLSSYLQKKSDVEDHSVHLLFSANRWEQVPLIKEKLSQGVTLVVDRYAFSGVAFTGAKENFSLDWCKQPDVGLPKPDLVLFLQLQLADAAKRGAFGHERYENGAFQERALRCFHQLMKDTTLNWKMVDASKSIEAVHEDIRVLSEDAIRTATEKPLGELWK
notes: The pET-14b vector with N-terminal 6xHis tag is stated for the mutants only; the WT was 'run in parallel'; also called WT TMPK; WT; not shown: His6 (inferred from the mutants' construct)
  stoichiometry N: 2
